Assay results: article PMC9882985 (Science Advances, 2023)
One block for each molecule: values may come before it.

How the values were obtained:
[1] = biological target: eYFP-CP2c WT with SUMO3 conjugation; test: FRET; details: in vitro; eYFP-CP2c conjugated with SUMO3 (lane 12); n = 3; parent: est. 13; read off a plot
[2] = biological target: eYFP-CP2c WT with SUMO2 conjugation; test: FRET; details: in vitro, n = 3, parent: est. 13, read off a plot
[3] = biological target: eYFP-CP2c WT with SUMO conjugation (SUMO1), Q9ERA0;P63165; test: FRET; details: in vitro; eYFP-CP2c conjugated with SUMO1 (lane 6); n = 3; parent: est. 75; read off a plot
[4] = biological target: PSME3 WT-dTomato with SUMO1 conjugation, P61289;P63165; test: FRET; details: in vitro; PSME3-dTomato conjugated with SUMO1 (lane 6); n = 3; parent: est. 55; read off a plot
[5] = biological target: PSME3 WT-dTomato with SUMO2 conjugation, P61289;P61956; test: FRET; details: in vitro; PSME3-dTomato conjugated with SUMO2 (lane 7); n = 3; parent: est. 21; read off a plot
[6] = biological target: PSME3 WT-dTomato with SUMO3 conjugation, P61289;P55854; test: FRET; details: in vitro; PSME3-dTomato conjugated with SUMO3 (lane 8); n = 3; parent: est. 24; read off a plot
[7] = biological target: the molecule itself; test: cross-linking + co-IP; DSP XL-IP: live transfected cells crosslinked with 2 mM DSP in PBS 3 hours on ice, lysed, immunoprecipitated, Western blot with or without DTT; cells arrested at G2-M with MG132 (Fig. 4G)

Molecule: PSME3 WT-dTomato (non-SUMOylated) (from UniProt P61289) K6R; K12R; K14R; K110R; K123R; K243R
- response [1]: 7%
- response ([2]; eYFP-CP2c conjugated with SUMO2 (lane 11)): 9%

B1: Flag-tagged CP2c WT (natural protein, mouse, UniProt Q9ERA0 1-502, looked up)
chain: MAWALKLPLADEVIESGLVQDFDASLSGIGQELGAGAYSMSDVLALPIFKQEESSLPPDNENEILPFQYVLCAATSPAVKLHDETLTYLNQGQSYEIRMLDNRKLGELPELNGKLVKSIFRVVFHDRRLQYTEHQQLEGWRWNRPGDRILDIDIPMSVGVIDPRANPTQLNTVEFLWDPSKRTSVFIQVHCISTEFTMRKHGGEKGVPFRVQIDTFKENGNGEYTEHLHSASCQIKVFKPKGADRKQKIDREKMEKRTPHEKEKYQPSYETTILTECSPWPEITYVNNSPSPGFNSSHSSFSLGEGNGSPNHQPEPPPPVTDNLLPTTTPQEAQQWLHRNRFSTFTRLFTNFSGADLLKLTRDDVIQICGPADGIRLFNALKGRMVRPRLTIYVCQESLQLREQQPQPQPQPQKQEDGDSNGTFFVYHAIYLEELTAVELTEKIAQLFSISPHQISQIYKQGPTGIHVVISDEMVQNFQEEACFILDTMEAETSDSYHVILK
notes: CP2c (Tfcp2), mouse cDNA, in pcDNA3-Flag; In cells part of it is SUMO1-conjugated at K50; also called Flag-CP2c; source: 293T, transfected, in lysate
- stoichiometry N [7]: 2

Other lines, results leading:

- response [3]: 11%
- response ([2]; eYFP-CP2c conjugated with SUMO2 (lane 7)): 16%
Molecule: PSME3 WT-dTomato (non-SUMOylated) (from UniProt P61289) SIM m70 (ILLTN→IRRTN) + SIM m115 (LVDII→RKDII)

- response [4]: 7%
- response [5]: 9%
- response [6]: 12%
Molecule: eYFP-CP2c WT (non-SUMOylated) (from UniProt Q9ERA0) SIM m158: VGVID→KGKID
